Values belong to the binder of their own block, whether it stands above or below them.
Legend:
P8mS = target: T1, P8mS; assay: two-hybrid library CC1; conditions: mean of both orientations;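 further: natural log of median RNA to DNA barcode read ratio; higher means stronger binding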
T1 chain: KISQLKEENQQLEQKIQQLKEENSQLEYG

P4mS = target: T2, P4mS; assay: two-hybrid library CC1; conditions: mean of both orientations;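 further: natural log of median RNA to DNA barcode read ratio; higher means stronger binding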
T2 chain: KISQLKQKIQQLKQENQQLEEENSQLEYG

P6 = target: T3, P6; assay: two-hybrid library CC1; conditions: mean of both orientations;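 further: natural log of median RNA to DNA barcode read ratio; higher means stronger binding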
T3 chain: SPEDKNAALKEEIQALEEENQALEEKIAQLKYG

P8 = target: T4, P8; assay: two-hybrid library CC1; conditions: mean of both orientations;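 further: natural log of median RNA to DNA barcode read ratio; higher means stronger binding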
T4 chain: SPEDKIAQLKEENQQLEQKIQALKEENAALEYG

P5mS = target: T5, P5mS; assay: two-hybrid library CC1; conditions: mean of both orientations
T5 chain: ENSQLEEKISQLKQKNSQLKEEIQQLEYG

P9 = target: T6, P9; assay: two-hybrid library CC1; conditions: mean of both orientations
T6 chain: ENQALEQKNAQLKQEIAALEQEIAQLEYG

P5 = target: T7, P5; assay: two-hybrid library CC1; conditions: mean of both orientations
T7 chain: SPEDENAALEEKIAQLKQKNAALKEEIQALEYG

P5SC2 = target: T8, P5SC2; assay: two-hybrid library CC1; conditions: mean of both orientations
T8 chain: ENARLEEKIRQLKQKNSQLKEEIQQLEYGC

P7mS = target: T9, P7mS; assay: two-hybrid library CC1; conditions: mean of both orientations
T9 chain: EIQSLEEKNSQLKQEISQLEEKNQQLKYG

P6mS = target: T10, P6mS; assay: two-hybrid library CC1; conditions: mean of both orientations
T10 chain: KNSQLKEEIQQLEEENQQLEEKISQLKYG

P6SC1 = target: T11, P6SC1; assay: two-hybrid library CC1; conditions: mean of both orientations
T11 chain: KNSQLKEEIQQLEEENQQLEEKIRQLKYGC

P4 = target: T12, P4; assay: two-hybrid library CC1
T12 chain: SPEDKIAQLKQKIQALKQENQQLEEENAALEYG

P5SC1 = target: T13, P5SC1; assay: two-hybrid library CC1; conditions: mean of both orientations
T13 chain: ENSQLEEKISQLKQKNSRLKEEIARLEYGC

P7 = target: T14, P7; assay: two-hybrid library CC1; conditions: mean of both orientations
T14 chain: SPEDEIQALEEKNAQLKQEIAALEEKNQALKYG

P6SC2 = target: T15, P6SC2; assay: two-hybrid library CC1; conditions: mean of both orientations
T15 chain: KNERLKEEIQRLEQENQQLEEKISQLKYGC

4H319-bA = target: T16, 4H319-bA; assay: two-hybrid library CCNG1
T16 chain: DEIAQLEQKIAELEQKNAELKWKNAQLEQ

4H2588-bA = target: T17, 4H2588-bA; assay: two-hybrid library CCNG1
T17 chain: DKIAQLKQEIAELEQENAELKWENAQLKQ

4H348-bA = target: T18, 4H348-bA; assay: two-hybrid library CCNG1
T18 chain: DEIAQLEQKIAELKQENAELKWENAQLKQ

4H3277-bA = target: T19, 4H3277-bA; assay: two-hybrid library CCNG1
T19 chain: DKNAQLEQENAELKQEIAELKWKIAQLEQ

4H2473-bA = target: T20, 4H2473-bA; assay: two-hybrid library CCNG1
T20 chain: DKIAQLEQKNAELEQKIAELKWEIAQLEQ

4H2438-bA = target: T21, 4H2438-bA; assay: two-hybrid library CCNG1
T21 chain: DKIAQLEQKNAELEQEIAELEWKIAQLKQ

4H967-bA = target: T22, 4H967-bA; assay: two-hybrid library CCNG1
T22 chain: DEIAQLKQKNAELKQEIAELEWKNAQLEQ

4H492-bA = target: T23, 4H492-bA; assay: two-hybrid library CCNG1
T23 chain: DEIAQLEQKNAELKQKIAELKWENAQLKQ

4H741-bA = target: T24, 4H741-bA; assay: two-hybrid library CCNG1
T24 chain: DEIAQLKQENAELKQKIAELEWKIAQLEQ

4H2717-bA = target: T25, 4H2717-bA; assay: two-hybrid library CCNG1
T25 chain: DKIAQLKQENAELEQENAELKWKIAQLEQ

4H2692-bA = target: T26, 4H2692-bA; assay: two-hybrid library CCNG1
T26 chain: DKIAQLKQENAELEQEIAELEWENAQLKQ

4H2915-bA = target: T27, 4H2915-bA; assay: two-hybrid library CCNG1
T27 chain: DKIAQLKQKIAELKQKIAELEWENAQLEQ

4H2503-bA = target: T28, 4H2503-bA; assay: two-hybrid library CCNG1
T28 chain: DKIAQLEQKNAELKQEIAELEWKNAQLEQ

4H40-bA = target: T29, 4H40-bA; assay: two-hybrid library CCNG1
T29 chain: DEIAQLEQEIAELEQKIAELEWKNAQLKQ

4H477-bA = target: T30, 4H477-bA; assay: two-hybrid library CCNG1
T30 chain: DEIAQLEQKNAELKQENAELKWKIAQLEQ

4H3057-bA = target: T31, 4H3057-bA; assay: two-hybrid library CCNG1
T31 chain: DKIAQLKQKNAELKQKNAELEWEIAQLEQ

4H2839-bA = target: T32, 4H2839-bA; assay: two-hybrid library CCNG1
T32 chain: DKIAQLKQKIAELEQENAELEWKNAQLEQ

B1: P4 (peptide)
chain: SPEDKIAQLKQKIQALKQENQQLEEENAALEYG
interaction score (P8mS): -2.82
interaction score (P4mS): -2.91
interaction score (P6): -2.83
interaction score (P8): -2.99
interaction score (P5mS): -2.91
interaction score (P9): -2.29
interaction score (P5): -3.06
interaction score (P5SC2): -2.74
interaction score (P7mS): -2.77
interaction score (P6mS): -2.85
interaction score (P6SC1): -2.87
interaction score (P4): -3
interaction score (P5SC1): -2.83
interaction score (P7): -2.74
interaction score (P6SC2): -2.66

interaction score (4H319-bA): -0.948
interaction score (4H2588-bA): -1.29
interaction score (4H348-bA): 0.0426
interaction score (4H3277-bA): -1.45
interaction score (4H2473-bA): 1.36
interaction score (4H2438-bA): 1.74
interaction score (4H967-bA): -0.568
interaction score (4H492-bA): 1.59
interaction score (4H741-bA): -0.215
interaction score (4H2717-bA): -0.288
interaction score (4H2692-bA): 0.00488
interaction score (4H2915-bA): 1.77
interaction score (4H2503-bA): 0.927
interaction score (4H40-bA): -0.83
interaction score (4H477-bA): -0.278
interaction score (4H3057-bA): 2.39
interaction score (4H2839-bA): 0.364
B2: 4H2438-bA (peptide)
chain: DKIAQLEQKNAELEQEIAELEWKIAQLKQ

— article PMC10397247
